Entries after “also recorded” stand apart in the source; their conditions may differ.
T1: FSTL1 (Homo sapiens, UniProt Q12841)
T1 sequence (Q12841 21-308): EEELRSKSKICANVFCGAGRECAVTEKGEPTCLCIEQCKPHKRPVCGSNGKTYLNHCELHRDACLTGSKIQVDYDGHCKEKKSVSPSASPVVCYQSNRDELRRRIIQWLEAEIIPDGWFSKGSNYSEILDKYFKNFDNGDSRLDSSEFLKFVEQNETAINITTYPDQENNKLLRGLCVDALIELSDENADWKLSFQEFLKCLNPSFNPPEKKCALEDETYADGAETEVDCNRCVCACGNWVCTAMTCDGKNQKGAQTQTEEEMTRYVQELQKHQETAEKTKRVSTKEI

T2: mouse FSTL1 (Mus musculus, UniProt Q62356)
T2 construct: AAA linker + 10xHis (C); made in house; host or cells: Expi293 (transient expression; purified from culture supernatant on HisPur Cobalt Resin)
T2 sequence (Q62356 with tags, fused parts or gaps): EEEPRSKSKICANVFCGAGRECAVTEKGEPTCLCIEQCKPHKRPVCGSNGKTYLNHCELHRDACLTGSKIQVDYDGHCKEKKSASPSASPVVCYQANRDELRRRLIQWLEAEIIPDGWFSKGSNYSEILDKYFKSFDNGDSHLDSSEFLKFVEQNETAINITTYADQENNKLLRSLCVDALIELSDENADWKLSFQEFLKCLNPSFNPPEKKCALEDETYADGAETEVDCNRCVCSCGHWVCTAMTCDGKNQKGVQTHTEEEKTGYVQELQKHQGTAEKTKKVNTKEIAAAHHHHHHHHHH


Key:
[1] = target: T1, FSTL1; experiment: Inhibition of MSC induction by FSTL1 in mouse bone marrow cells, ALCAM- and PDGFRA-positive cells (Example 4); format: cell-based; set-up: purchased R&D Systems, Inc. 1694-FN-050; settings: FSTL1 50 ng/mL, antibody 10 μg/mL, 11 days, vs control anti-DNP antibody
Protocol: It is known that when bone marrow cells are stimulated with FSTL1, mesenchymal stem cells (MSCs) having pluripotency or self-proliferative capacity grow (Cancer Research 73: 6185, 2013). Thus, 2×10^7 cells/well of bone marrow cells collected from the thigh bone of a C57BL/6 mouse were suspended in 3 mL/well of RPMI1640 (GIBCO/Thermo Fisher Scientific Inc., Cat. No. C11875500BT) medium containing 2% fetal bovine serum, supplemented with 50 ng/mL (final concentration) of FSTL1 (R&D Systems, Inc. Cat#1694-FN-050) and 10 μg/mL of the anti-FSTL1 antibody (#5-2, #5-3, #5-8, #5-10, #5-43, #6-55, or #7-34) or its isotype mouse IgG (anti-DNP antibody) as a control antibody “Control”, and cultured under stimulation (6-well plate). 11 days thereafter, the number of cells was counted while the cells were stained with a PE-labeled anti-ALCAM antibody (eBioscience, Cat. No. 12-1661-82) and a PE-labeled anti-PDGFRA antibody (eBioscience, Cat#12-1401-81) in order to examine the expression of MSC markers, and the contents of ALCAM-positive cells and PDGFR-positive cells were analyzed by flow cytometry using FACScan (Becton, Dickinson and Company, Code. BECTON-DICKINSON-FACSCAN) to calculate the number of each positive cell per culture.

[2] = target: T2, mouse FSTL1; experiment: ELISA binding activity of purified antibody against mouse FSTL1 (Example 2)
Protocol: The reactivity of the obtained antibody clones described above with FSTL1 was evaluated by ELISA under the following conditions.
(Table 2 ELISA conditions for binding activity evaluation of purified antibody) Antibodies used: anti-dinitrophenyl (DNP) antibody (negative control), #5-2, #5-3, #5-8, #5-10, #5-43, #6-55, and #7-34
FIGS. 2 and 3 show results of evaluating binding activity under the condition of Table 3 as to clones differing in screening and antibody purification timings.
Antibodies used: anti-dinitrophenyl (DNP) antibody (negative control), #5-2, #5-3, #5-8, #5-10, #5-43, #6-55, and #7-34
FIGS. 32 and 33 show results of evaluating binding activity under the condition of Table 3 as to clones differing in screening and antibody purification timings.

[3] = target: T1, FSTL1; experiment: Affinity of mouse chimeric antibodies for human FSTL1, Biacore T-200 (Example 33); format: binding
Protocol: The mouse chimeric antibodies were immobilized onto Sensor Chip CM5 (GE Healthcare Japan Corp., BR-1005-30) using Mouse Antibody Capture Kit (GE Healthcare Japan Corp., BR-1008-38), and their affinity for human FSTL1 was calculated using Biacore T-200 (GE Healthcare Japan Corp.).
First, the exhaustive activity comparison of the obtained antibodies was conducted with the human FSTL1 concentration fixed to 10 μg/ml (Table 33-1, FIG. 58).
Next, the KD values of clone #6-55, #7-34, and #13 presumed to have high affinity in FIG. 58 were calculated with the antigen concentration adjusted to 0 to 20 μg/ml (Table 35-2).
First, the exhaustive activity comparison of the obtained antibodies was conducted with the human FSTL1 concentration fixed to 10 μg/ml (Table 33-1, FIG. 90).
Next, the KD values of clone #6-55, #7-34, and #13 presumed to have high affinity in FIG. 90 were calculated with the antigen concentration adjusted to 0 to 20 μg/ml (Table 35-2).

Molecule | inhibitory activity against the expansion of ALCAM-positive cells and PDGFRA-positive cells by FSTL1 [1] | binding activity against mouse FSTL1 ([2]; FIG. 1B/31B) | affinity in an assay system using surface plasmon resonance [3] | binding activity against mouse FSTL1 ([2]; FIG. 3B/33B)
#6-55: chicken-mouse chimeric anti-FSTL1 antibody clone; variable regions SEQ ID NO: 783 (light), 785 (heavy) (antibody, V domains shown, mouse constant regions) VH: AVTLDESGGGLQTPGGALSLVCKGSGFTFTSVTMQWVRQAPGKGLEWVASVCSGSSTYYAPAVKGRATISRDNGQSTVRLQLSNLRPEDTGTYYCAKIAGRARWSCTSAAYNIDAWGHGTEVIVSS VL: ASTQPSSVSAIPGETVKITCSGGGNNYGWYQQRSPGSAPVTVIYYNDNRPSNIPSRFSGSTSGSTSTLTITGVQADDEAIYYCGSWDSNTDSGIFGAGTTLTVL | slightly strong tendency of inhibitory activity | specific and equivalently strong binding activity | strong affinity | 
#7-34: chicken-mouse chimeric anti-FSTL1 antibody clone; variable regions SEQ ID NO: 787 (light), 789 (heavy) (antibody, V domains shown, mouse constant regions) VH: AVTLDESGGGLQTPGGGLSLVCKASGFTFSSVTMQWVRQAPGKGLEWVASICSGSSTYYGPAVKGRATISRDNGQNTVRLQLNNLRAEDTATYYCAKIVGRGRWSCTSAAYNIDAWGHGTEVIVSS VL: ASTQPSSVSANPGETVKITCSGGGNNYGWYQQKSPGSAPVTVIYYNNNRPSNIPSRFSGSTSGSTSTLTITGVQAEDEAVYYCGSYEGSTDSGIFGAGTTLTVL | slightly strong tendency of inhibitory activity | specific and equivalently strong binding activity | strong affinity | 
#5-43: chicken-mouse chimeric anti-FSTL1 antibody clone; variable regions SEQ ID NO: 779 (light), 781 (heavy) (antibody, V domains shown, mouse constant regions) VH: AVTLDESGGGLQTPGGGLSLVCKGSGFTFSSFNMFWVRQAPGKGLEWVAGIGKDGGTGYGAAVDGRATISKDSGQSTLRLQLNNLRAEDTGTYYCAKAAGGCSYDWCGAYTGDIDTWGHGTEVIVSS VL: ASTQPSSVSANPGEAVKITCSGGSGSYYGWYQQKSPGSAPVTVIYNNNQRPSDIPSRFSGSKSGSTATLTITGVQAEDEAVYFCGGYDSSTGHGGIFGAGTTLTVL | slightly strong tendency of inhibitory activity |  |  | 
#5-8: chicken-mouse chimeric anti-FSTL1 antibody clone; variable regions SEQ ID NO: 771 (light), 773 (heavy) (antibody, V domains shown, mouse constant regions) VH: AVTLDESGGGLQTPGGGLSLVCKGSGFTFSSFNMFWVRQAPGKGLEWVAGIGKDGVPKYGTAVDGRATISKDNGQSTMRLQLNNLRAEDTGTYFCAKAAGGCSYDWCGIYTGDIDTWGHGTEVIVSS VL: ASTQPSSVSANPGEAVKITCSGGSGSYYGWYQQKSPGSAPVTVIYNNNQRPSDIPSRFSGSKSGSTATLTITGVQAEDEAVYFCGGYDSSTGHGGIFGAGTTLTVL |  |  |  | no binding activity
#8-1: chicken-mouse chimeric anti-FSTL1 antibody clone; variable regions SEQ ID NO: 791 (light), 793 (heavy) (antibody, V domains shown, mouse constant regions) VH: AVTLDESGGGLQTPGGALSLVCKGSGFTFSSFNMFWVRQAPGKGLEWVAGIGKDGVPKYGAAVDGRATISKDNGQSTMRLQLNNLRAEDTGTYFCAKAAGGCSYDWCGIYAGDIDTWGHGTEVIVSS VL: ASTQPSSVSANPGEAVKITCSGGSGSYYGWYQQKSPGSAPVTVIYNNNQRPSDIPSRFSGSKSGSTATLTITGVQAEDEAVYFCGGYDSSSGHGGIFGAGTTLTVL |  |  |  | slightly exhibited binding activity; also recorded: very slightly exhibited binding activity
#8-4: chicken-mouse chimeric anti-FSTL1 antibody clone; variable regions SEQ ID NO: 795 (light), 797 (heavy) (antibody, V domains shown, mouse constant regions) VH: AVTLDESGGGLQTPGGGLSLVCKGSGFTLSSFNMFWVRQAPGKGLEWVAGVGKDGGTAYGAAVDGRATISRDSGQSTVRLQLNNLRAEDTGTYFCAKAAGGCSYSWCGAYVGDLDAWGHGTEVIVSS VL: ASSQPSSVSANPGETVKITCSGGSGYYYGWYQQKSPGSAPVTVIYNNDNKPSDIPSRFSGSKSGSTGTLTITGVQVEDEAVYFCGGYDNSGTGIFGAGTTLTVL |  |  |  | no binding activity
#13: chicken-mouse chimeric anti-FSTL1 antibody clone; variable regions SEQ ID NO: 815 (light), 817 (heavy) (antibody, V domains shown, mouse constant regions) VH: AVTLDESGGGLQTPGGGLSLVCKASGFTFSSVTMQWVRQAPGKGLEWVASICSGSSTYYGPAVKGRATISRDNGQNTVRLQLNNLRAEDTATYYCAKIVGRGRWSCTSAAYNIDAWGHGTEVIVSS VL: ASTQPSSVSANPGETVKITCSGGGNNYGWYQQKSPGSAPVTVIYNNNNRPSNIPSRFSGSKSGSTNTLTITGVQAEDEAVYYCGSYDSSSDSGIFGAGTTLTVL |  |  | strong affinity | 
#33: chicken-mouse chimeric anti-FSTL1 antibody clone; variable regions SEQ ID NO: 823 (light), 825 (heavy) (antibody, V domains shown, mouse constant regions) VH: AVTLDESGGGLQTPGGGLSLVCKASGFTFSSFNMNWVRQAPGKGLEYVAEISGTGSSTYYGSAVKGRATISRDNGQSTVRLQLNNLRAEDTATYFCARGDGAYSIDAWGHGTEVIVSS VL: ASTQPSSVSANPGETVEITCSGDSSYYGWFQQKSPGSAPVTVIYDNTNRPSDIPSRFSGSKSGSTATLTITGVRAEDEAVYYCGGYDSSTYDGIFGAGTTLTVL |  |  | strong affinity | 

Reference: patent US20180021429A1, “ANTICANCER AGENTS OR ANTIMETASTATIC AGENTS USING FSTL1 AND COMBINATION DRUG THEREOF” (PHARMA FOODS INTERNATIONAL CO., LTD., priority 2015, published 2018)
